According to PMC7906036 (Nature, 2020):
Where two headings read alike, the source gives them in different places.

T1: Rhodamine green-hepcidin (Homo sapiens, not fully specified; rhodamine green at position 17)
T1 chain: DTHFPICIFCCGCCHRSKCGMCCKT


Tests used:
[1] = molecular target: human ferroportin (wild type) (human) (UniProt Q9NP59); assay: fluorescence polarisation
[2] = molecular target: human ferroportin (wild type) (human) (UniProt Q9NP59); assay: fluorescence polarisation; remark: listed apart in the source
[3] = molecular target: human ferroportin (wild type) (human) (UniProt Q9NP59); assay: fluorescence polarisation; remark: listed apart in the source
Rhodamine green-hepcidin = molecular target: T1, Rhodamine green-hepcidin; assay: fluorescence polarisation
[4] = molecular target: human ferroportin (wild type) (human, UniProt Q9NP59); assay: SEC
Chain of human ferroportin (wild type) (Q9NP59 whole entry): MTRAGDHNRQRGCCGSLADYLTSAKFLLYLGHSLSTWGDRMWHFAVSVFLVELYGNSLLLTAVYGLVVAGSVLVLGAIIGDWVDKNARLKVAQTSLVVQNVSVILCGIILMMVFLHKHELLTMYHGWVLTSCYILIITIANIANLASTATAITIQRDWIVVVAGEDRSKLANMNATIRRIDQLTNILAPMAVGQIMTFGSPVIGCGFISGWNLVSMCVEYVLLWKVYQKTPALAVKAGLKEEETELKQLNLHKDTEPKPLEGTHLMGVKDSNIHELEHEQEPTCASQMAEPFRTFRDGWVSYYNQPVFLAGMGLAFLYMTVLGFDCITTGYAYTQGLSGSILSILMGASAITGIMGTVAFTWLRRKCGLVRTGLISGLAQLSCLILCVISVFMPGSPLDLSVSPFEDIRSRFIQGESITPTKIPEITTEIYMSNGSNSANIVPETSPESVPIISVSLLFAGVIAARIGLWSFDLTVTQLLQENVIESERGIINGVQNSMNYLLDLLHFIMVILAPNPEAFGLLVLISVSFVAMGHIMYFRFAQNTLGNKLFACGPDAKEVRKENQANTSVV

Chain of human ferroportin (wild type) (human) (Q9NP59 whole entry): as above

Row | Kd [1] [nM] | Kd [2] [nM] | Kd [3] [nM] | binding result (Rhodamine green-hepcidin) | binding result [4] | Molecule
1 | 2.5 | 210 | 7.7 | – | – | Rhodamine green-hepcidin (peptide)
2 | – | – | – | no binding | binds | Fab45D8 (Fab, V domains shown) VH: EVQLQESGPGLAKPSQTLSLTCSVTGSSITSDYWNWIRKFPGNKLEYMGYISYSGSTYYNPSLKSQISITRDTSKNHYYLQLNSVTTEDTATYYCARQGLRNWYFDVWGTGTTVTVSS VL: DIVLTQSPASLPVSLGQRATISCRASKSVSASAYSYMHWYQQKPGQPPKPLIYLASNLESGVPARFSGSGSGTDFTLNIHPVEEEDAATYYCQHNRELPYTFGGGTKLEIK
